US20170218081A1 (OHIO STATE INNOVATION FOUNDATION, published 2017)

Tests used:
[1] = target: T1, Bovine submaxillary mucin (bovine); experiment: SPR
T1 construct: Glycoprotein used as the TAG-72-positive antigen in dot blots and SPR; also called BSM; TAG-72 positive mucin

[2] = target: T1, Bovine submaxillary mucin; experiment: SPR on immobilised BSM
[3] = target: T1, Bovine submaxillary mucin; experiment: SPR, BSM immobilised on CM5 chip
Procedure: To further confirm the binding data, surface plasmon resonance on 3E8.IgG, CC49.scFv, and 3E8.scFv (FIG. 7c) was determined. […] Next the affinity of the scFv of CC49 was measured. CC49.scFv binds in the mid-nanomolar range with a dissociation constant of 30±8 nM. Finally, SPR was conducted on 3E8.scFv and found it to bind 2-fold better than CC49.scFv and only 4-fold weaker than the bivalent IgG. At 16±4 nM, 3E8.scFv binds better than clinically tested CC49.IgG and scFv variants of CC49, and has more desirable biophysical properties than full-length antibodies.
The binding parameters were evaluated using surface plasmon resonance (SPR). BSM was immobilized on a CM5 dextran sensor chip using the GE Pharmacia amine coupling kit (BR-1000-50). Scouting conditions were 200 μg mL⁻¹ BSM in 100 mM sodium acetate, pH 4 for channel 2, and 10 μg mL⁻¹ BSA in 100 mM sodium acetate, pH 4 for channel 1. The immobilization protocol continued until 700 RU were obtained. Binding was measured as 2-1. Antibody and fragments were dialyzed into 10 mM HEPES, 150 mM NaCl, 3.4 μM EDTA, 0.005% surfactant P20 (GE Healthcare) and were assayed from 0-400 nM. Samples were bound for 120 seconds at 10 μL min⁻¹ and dissociation was measured for 180 seconds. The CM5 chip was regenerated between trials with 6 M guanidine and 200 mM acetic acid with no loss in activity. The average binding parameters were evaluated using the BIAevaluation software.

bovine serum albumin [4] = target: T2, bovine serum albumin (bovine, UniProt P02769 25-607); experiment: fluorescence dot blot on nitrocellulose
T2 construct: also called BSA
T2 sequence (P02769 25-607 limits assumed): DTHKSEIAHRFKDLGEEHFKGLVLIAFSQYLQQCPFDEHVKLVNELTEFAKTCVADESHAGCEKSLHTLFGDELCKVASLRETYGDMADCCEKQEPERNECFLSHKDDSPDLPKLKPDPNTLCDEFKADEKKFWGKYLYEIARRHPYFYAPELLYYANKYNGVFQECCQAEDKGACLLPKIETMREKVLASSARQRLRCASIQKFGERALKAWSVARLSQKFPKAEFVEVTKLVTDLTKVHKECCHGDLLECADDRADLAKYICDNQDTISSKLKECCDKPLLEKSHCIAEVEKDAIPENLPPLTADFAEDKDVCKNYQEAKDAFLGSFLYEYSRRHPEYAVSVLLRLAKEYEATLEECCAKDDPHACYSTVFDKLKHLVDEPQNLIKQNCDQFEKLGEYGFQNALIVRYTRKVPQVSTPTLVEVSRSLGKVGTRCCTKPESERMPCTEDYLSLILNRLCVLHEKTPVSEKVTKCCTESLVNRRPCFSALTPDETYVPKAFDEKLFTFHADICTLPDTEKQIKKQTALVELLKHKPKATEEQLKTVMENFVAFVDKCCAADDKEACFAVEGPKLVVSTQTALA
Procedure: Bovine submaxillary mucin is positive for the TAG-72 epitope, sialyl-Tn. To qualitatively assay binding, BSM was spotted on a nitrocellulose membrane and then blocked with bovine serum albumin (BSA). The antibodies and fragments were labeled nonspecifically at lysines with the NHS-ester of fluorescein, and then were added to the dot blots. After gentle washing the samples were imaged using a Typhoon phosphorimager.
Qualitative binding to sialyl-Tn was assayed by dot-blotting. First, 2 μL of 5 mg mL⁻¹ bovine submaxillary mucin (M3895-Sigma) was spotted on a nitrocellulose membrane. The membrane was allowed to dry overnight before blocking with 5 mg mL⁻¹ BSA. After overnight incubation, excess BSA was removed by washing before addition of fluorescein-labeled scFvs. The scFvs were incubated for 3 hours at room temperature before washing. Fluorescence was observed using a Typhoon phosphorimager with 488 nm excitation.

[5] = target: T1, Bovine submaxillary mucin; experiment: estimate from the competition dot blot on BSM
Procedure: (§1) A similar dot blot experiment was performed using constant concentrations of BSM and fluorescein-labeled 3E8 IgG. The assays were performed with increasing concentrations of unlabeled 3E8.scFv. […] Two negative controls were performed in parallel. […] By 4 μM scFv about half of the IgG is displaced and by […] the dot blot resembles the negative control. This analysis estimates that 3E8.scFv binds approximately 16-fold weaker than 3E8.IgG and both bind the same epitope. The slight loss in affinity is expected since the native IgG is bivalent versus the monovalent scFv.
(§2) The epitope binding of the 3E8.scFv was assayed for its ability to inhibit 3E8.IgG binding. Here, 0.25 μM labeled 3E8.IgG competed with increasing concentrations of nonlabeled 3E8.scFv (0 to 8 μM). The loss of fluorescence was observed using the Typhoon phosphorimager with 488 nm excitation.

[6] = target: T1, Bovine submaxillary mucin; experiment: estimate from the competition dot blot against labeled 3E8.IgG
[7] = target: T1, Bovine submaxillary mucin; experiment: competition dot blot; unlabeled scFv against 0.25 µM fluorescein-labeled 3E8 IgG on BSM
Procedure: as §1, §2

bovine serum albumin [8] = target: T2, bovine serum albumin; experiment: negative control of the competition dot blot, fluorescein-labeled IgG, no BSM
Procedure: as §1, §2

Row | Binder | Kd [1] | Kd [2] | Kd [3] | fold tighter binding than CC49.scFv [3] | fold weaker binding than 3E8 IgG [3] | binding result (bovine serum albumin [4]) | fold weaker binding than 3E8.IgG [5] | Kd [6] | IC50 [7] | binding result (bovine serum albumin [8])
1 | 3E8.scFv (scFv, Labelled at lysines with fluorescein for the fluorescence dot blots and with biotin for the HRP dot blot and IHC; also called the scFv of 3E8; 3E8 scFv single chain) scFv: GSSGDIVMTQSPDSLAVSLGERATINCKSSQSVLYSSNNKNYLAWYQQKPGQPPKLLIYWASTRESGVPDRFSGSGSGTDFTLTISSLQAEDVAVYYCQQYYSYPLTFGGGTKVEIKLSADDAKKDAAKKDDAKKDDAKKDLQVQLVQSGAEVKKPGASVKVSCKASGYTFTDHAIHWVRQAPGQRLEWMGYFSPGNDDFKYSQKFQGRVTITADKSASTAYMELSSLRSEDTAVYYCARSWIMQYWGQGTLVTVSS | 16.4 nM | 12 nM | 16 nM | 2 fold | 4 fold | no binding | ~16 fold | ~10.4 nM | ~4000 nM | 
2 | 3E8 IgG (antibody, V domains shown, Full-length humanized monoclonal IgG, gift from Enlyton, Ltd; Fluorescein-labelled at lysines in the dot blots; also called the bivalent IgG; full-length 3E8 IgG) VH: QVQLVQSGAEVKKPGASVKVSCKASGYTFTDHAIHWVRQAPGQRLEWMGYFSPGNDDFKYSQKFQGRVTITADKSASTAYMELSSLRSEDTAVYYCARSWIMQYWGQGTLVTVSS VL: not shown |  |  | 4 nM |  |  |  |  |  |  | no binding (tested: 0.25 µM)
